Data on nine sequences can be found in the DeepSol protein solubility set.

This data set can be described thus: soluble on expression in E. coli; label from the status in PepcDB or PDB records.
For “MKVAIVGVSGAVGQEFLRVLDERNFPMDELVLFGSKRSAGTTYTFRGKQIEVKLLQHNDDFKGVDIAFTSAGAGTSKEFEKTITKYGAVMIDNSSAFRMDADVPLVVPEVNAADALERPRGVIANPNCTTIQMVVALKAIEQLSHIKTVHVSTYQAASGAGAAAMDELYEQYRQVLANEPVTVEKFAYQLAFNLIPQIDVFTENGYTKEEMKMYNETRKIMHSDVKVSATCVRVPALRAHSESIWVETERPISVEEAREAFAKGEGLVLQDNPAEKEYPMPLFLAGKDPVYVGRIRKDLTNENGLTFWIVGDQIKKGAALNAVQIAEYLIKVKNV”, the “soluble on expression in E. coli” value is on record as “not soluble”. As to “MSKCPTVRARAIDCKQGAVRAVRYNVDGNYCVTCGSDKTVKLWNPLKSSLLKTYSGTGNEVLDAASSSDNSQIAAGGADRACTVFDVETGKQLRRWRTHGAQVNAVAFNEESSVVFSGSMDCTMQAFDCRSRSEKPIQIFNESTDGILSIDVNGHEIVAGSADGNYRVYSIRDGNMTVDYMGDSVNSVSFTPDSNCLLAGVMGGIVRLIDKSSGKLLASYKGHQNTEYKLDCRVLQSIEHVASGSEDGFVYVYSLLDSHIVSKLEHPSKVIHSLTAHPKKERLMTAAGQMIYLWVAEDDAEVLGE”, the “soluble on expression in E. coli” value was “not soluble”. The entry for “MGSDKIHHHHHHAAPSPDAQRVAAYAASHFQQAQIDTLKTLVGYDTRARDGLTPDTDPVFADFKRALGVKARMLGLDVEDNGYVMLISLSPEGAGTDVKKVGVITHGDVQPADPSLWPQSPYELTETADGRLVGRGAEDDKGPIATALYAMKAIKDSGIVLKRRIELLVYMAEESDWEPLKDFLKTYEPADINITLDAEYPVVTGEKGWSQIKLSLPRVMVKVGADTPVLTYFSGGSFASQIPQQASAVIQNTNPELVAALKARAKTLPIKTDFIDEPQGLTIHATGKAAHSSTPEDGINAVAYLAELLSPTADGGIPEWPMTTAAVTVDFLHSLVGTGLYGERFGKLGYSDEFMGPMTLAPTLITEGKEGTDVTLNLRRPVGRTPEALDKLAIAAIHGWQDARGTQVADIETYWGTPMLIDDAPHLETLLGVFGHYTNTAGPKPIAIGGSTNAKLFPNALSFGPAMPGMEYTGHSEYEFITRDQLKLNLEMYTAALVELAMRE” is “not soluble”; for “MLSSTAIAKWQKINDVDYTWGPFKIYNISLFTETGEYKPQERPIMLTLRYNKPVDGRDFAISVAKSWANLGIALSEQNVVIERLRKILPDLKSGDALSYIALSDHGYFVLNDQVIEQEFNHEFNDAMLAIWLDPKVELSHKLITKKIEGAAQAVHYSAEYREKVTSSSEDLVSQEQRQQNLPNGTPSEATSLTEQEEREDDEKAPAISDAENDLRHSIDESAPQIVEPEQEIIPNVDPMPDYQLPVS” it is “not soluble”.

As to “MVWFFFSCDEYNEEILKTNSGYWKETVSNTPIIGKWITSNGVKIGEKQVLVFQSYENINGSKSDWVMHVYQPTFLPPNQVIFRIYDV”, the “soluble on expression in E. coli” value is given as “soluble”. The entry for “MSLMPFHLAIPVHDLPAARRFYGEVFGLSEGRSAEHWVDFDFFGHQLVIHQHPQTDSQRHAGSNPVDGHDVPVPHFGVVLAWDDWHALAERLQQRGTRFVIEPYIRFKGQVGEQATLFLFDPCGNALEFKSFRDMGQLFAKLEHHHHHH” is “soluble”; for “MGSDKIHHHHHHMPERVLNFRALFLHGLYKMDKPKAYCRLFLPSFLLLSACTVDISQPDPSATAVDAEAKTWAVKFQHQSSFTEQSIKEITAPDLKPGDLLFSSSLGVTSFGIRVFSTSSVSHVAIFLGDNNVAEATGAGVQIVSLKKAMKHSDKLFVLRVPDLTPQQATDITAFANKIKDSGYNYRGIVEFIPFMVTRQMCSLNPFSEDFRQQCVSGLAKAQLSSVGEGDKKSWFCSEFVTDAFAKAGHPLTLAQSGWISPADLMHMRIGDVSAFKPETQLQYVGHLKPGIYIKAGRFVGLTR” it is “not soluble”. “MGSDKIHHHHHHQNTPIGENIELAGENPEELKVIYINKDVSTHFIAMEDIKYVDISVNDIVGDIPTGNSLRIKPTKEGASGVITIVTERFFVQYMLVYSSDLAKAYTRFNIPYADLRSYMNPEVNLTKAQMYDYAHRMFISKNKFYDVSSTSNLMKIVLNNIYTLDKYFFIDISMINKTKIRYDIDQIRFKIEDKKQTKATNFQSIEILPLMQVNKNLVFKKNYRNIFVFEKFTFPDEKVLTIEISEKQISGRTITLRIDYADILHADAFTE”: the “soluble on expression in E. coli” value is listed as “not soluble”. On to “VNYRTPAEIMSVANELLTQINPDIAPAMAIRESGREVVNLPLDADLSAVMDSLREEDSQRTIAVISSRRHHESDFYLVDDIKGLEFDHVIVVDPAGIVEESPQGLQDLYVAVTRATQSLTILGE”, for which the “soluble on expression in E. coli” value is “not soluble”.
